Square brackets hold non-standard residues; d marks the D form. Ends that are not written are not given here. * marks the point of attachment. Dnp = O=[N+]([O-])c1ccc(*)c([N+](=O)[O-])c1; Mca = COc1ccc2c(CC(=O)*)cc(=O)oc2c1
Key:
[1] = molecular target: rNln (Met37–Ser704), C-terminal 6xHis-tag, catalytically active (UniProt P42676 37-704); assay: fluorescence polarisation
[2] = molecular target: human neurolysin (hNln), Ser38-Pro704, N-terminal 6xHis-tag, used in the activity assays (human, UniProt Q9BYT8 38-704); assay: enzyme inhibition

For {FAM}-GGFLRRIRPKLK [FAM-GGFLRRIRPKLK, N-terminally FAM-labeled Dyn A (2–13)], the Kd [1] was 1.47 µM.

YGGFLRRIRPK [dynorphin A (1–11)]: binds [2].

Work on YGGFLRRIRPKL [dynorphin A (1–12)] yielded a Ki [2] of 0.9 µM.

YGGFLRRIRP [dynorphin A (1–10)]: binds [2].

YGGFLRR [dynorphin A (1–7)]: binds [2].

Mca-PLGP[dK](Dnp)-OH [Mca–Pro–Leu–Gly–Pro–D–Lys(DNP)–OH, quenched fluorogenic substrate of Nln]: binds [2].
